Data: US20170306001A1

Key:
[1] = biological target: DL06-HA, full length HA of A/duck/Laos/3295/2006(H5N1) (clade 2.3.4) (influenza A virus A/duck/Laos/3295/2006(H5N1))
[2] = biological target: Hatay04-HA, full length HA of A/chicken/Hatay/2004(H5N1) (clade 1) (influenza A virus A/chicken/Hatay/2004(H5N1))
[3] = biological target: VN04-HA, full length HA of A/Vietnam/1203/2004(H5N1) (clade 1) (influenza A virus A/Vietnam/1203/2004(H5N1))
[4] = biological target: VN04-HA, full length HA of A/Vietnam/1203/2004(H5N1) (clade 1) (influenza A virus A/Vietnam/1203/2004(H5N1)); test: cell-based or functional assay
[5] = biological target: DL06-HA, full length HA of A/duck/Laos/3295/2006(H5N1) (clade 2.3.4) (influenza A virus A/duck/Laos/3295/2006(H5N1)); test: cell-based or functional assay
[6] = biological target: Indo05-HA, full length HA of A/Indonesia/5/2005(H5N1) (clade 2.1) (influenza A virus A/Indonesia/5/2005(H5N1)); test: cell-based or functional assay

Row | Binder | endpoint titre [1] [ng/mL] | endpoint titre [2] [ng/mL] | endpoint titre [3] [ng/mL] | IC50, entry of HA-pseudotyped lentiviral particles into MDCK cells (luciferase) [4] [ng/mL] | fold change of IC50 in the HApp neutralization assay against mouse-9F4 [4] [fold] | inhibition of VN04-HApp entry at 1000 ng/ml [4] [%] | IC50, entry of HA-pseudotyped lentiviral particles into MDCK cells (luciferase) [5] [ng/mL] | reduction of HApp entry at the highest concentration tested [5] [%] | IC50, entry of HA-pseudotyped lentiviral particles into MDCK cells (luciferase) [6] [ng/mL] | reduction of HApp entry at the highest concentration tested [4] [%]
1 | xi-IgA1-9F4 (antibody, V domains shown) VH: QVQLQQSEAELARPGASVKMSCKASGFTLTTFTIHWVKQRPGQGLEWIGYINPRSGYTDYNQKFKDNTTLTVDKSSSTAYMQLSSLTSEDSAVFYCARSYYDYDVFDYWGQGTTLTVSS VL: DVQMTQSPSSLSASLGGKVTITCTARQDINKYIAWYQHKPGKGPRLLIHYTSTLQPGIPSRFSGSGSGTDYSFTISNLEPEDIATYYCLQYDNLVTFGGGTKLELKR | 1250 | 1250 | 1250 | 100 | 10 | 75 |  |  |  | 
2 | xi-IgG1-9F4 (antibody, V domains shown) V domain 1: QQSEAELARPGASVKMSCKASGFTLTTFTIHWVKQRPGQGLEWIGYINPRSGYTDYNQKFKDNTTLTVDKSSSTAYMQLSSLTSEDSAVFYCARSYYDYDVFDYWGQGTTLTV V domain 2: DVQMTQSPSSLSASLGGKVTITCTARQDINKYIAWYQHKPGKGPRLLIHYTSTLQPGIPSRFSGSGSGTDYSFTISNLEPEDIATYYCLQYDNLVTFGGGTK |  |  |  | 10 |  |  | 10 | 90 | 10 | 90
